Assay results: the supplement of paper PMC7125110
± gives the standard error. For some of these results: This sample holds only a part of the variants without activity.

B1: glmS ribozyme (parent)
chain: AUAAAAGCGCCAGAACUACAGAAAUGUAGUUGACGAGGAGGAGGUUUAUCGAAUUUUCGGCGGAUGCCUCCAAA

Tests used:
Conditions in all cases: with glucosamine-6-phosphate
[1] = variants of: B1; assay: kcat; higher = faster cleavage; RNA array
In short: (§1)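 Barcoded ribozyme variants on sequenced MiSeq chips were transcribed in situ by E. coli RNA polymerase and followed at 37 °C through a hybridised Cy3 probe. Glucosamine-6-phosphate at 40 μM to 10 mM in HEPES/KCl/Mg(OAc)2 buffer was flowed in, and tiles were imaged over ~14 h. Signals were normalised to baseline and to non-cleaving reference variants, and per-tile medians were fit to one- or two-exponential decays to give kobs. Weighted Michaelis–Menten fits across concentrations gave kcat and KM.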

[2] = variants of: B1; assay: KM; higher = weaker cofactor use; RNA array
In short: as §1

[3] = variants of: B1; assay: self-cleavage kobs at 2500 uM GlcN6P; higher = faster cleavage; RNA array
In short: as §1

[4] = variants of: B1; assay: self-cleavage kobs at 10000 uM GlcN6P; higher = faster cleavage; RNA array
In short: as §1

[5] = variants of: B1; assay: self-cleavage kobs at 160 uM GlcN6P; higher = faster cleavage; RNA array
In short: as §1

[6] = variants of: B1; assay: self-cleavage kobs at 640 uM GlcN6P; higher = faster cleavage; RNA array
In short: as §1

[7] = variants of: B1; assay: self-cleavage kobs at 40 uM GlcN6P; higher = faster cleavage; RNA array
In short: as §1

Variant	kcat [1] [s⁻¹]	KM [2] [µM]	self-cleavage kobs at 2500 uM GlcN6P [3] [s⁻¹]	self-cleavage kobs at 10000 uM GlcN6P [4] [s⁻¹]	self-cleavage kobs at 160 uM GlcN6P [5] [s⁻¹]	self-cleavage kobs at 640 uM GlcN6P [6] [s⁻¹]	self-cleavage kobs at 40 uM GlcN6P [7] [s⁻¹]
A14U A15G G43A	1.46e-05 ± 6.9e-06						
A14U A48C	7.33e-05 ± 4.6e-06	2020 ± 420	3.85e-05 ± 9.5e-06	6.17e-05 ± 9.4e-06			
A14U A48U	0.000103 ± 7.3e-06	9240 ± 1300		5.37e-05 ± 9.7e-06			
A14C G32U	0.0014 ± 6.9e-05	3610 ± 300	0.000576 ± 7.9e-05	0.00103 ± 0.00012	6.08e-05 ± 2.1e-05	0.000206 ± 3e-05	
A14G A42U	0.000931 ± 0.00011	3180 ± 600	0.000357 ± 7e-05	0.000738 ± 9.3e-05	5.25e-05 ± 1.1e-05	0.000152 ± 2.5e-05	
G13U C68A C70G	2.66e-05 ± 2.1e-06	139 ± 65		< 1e-05			< 1e-05
A14U G29A	0.00088 ± 5.1e-05	3420 ± 290	0.000368 ± 5.1e-05	0.000665 ± 0.00011	4.16e-05 ± 1e-05	0.000137 ± 1.7e-05	
A14C C50A	< 1e-05						
A14C C50U	1.4e-05 ± 6.4e-06						
A14C U57A U69A	3.51e-05 ± 1.3e-05					4.77e-05 ± 2.2e-05	
G13U U49G	1.85e-05 ± 6.3e-06				< 1e-05		< 1e-05
G13C A14U	0.000311 ± 2.1e-05	2100 ± 320	0.000186 ± 3e-05	0.00025 ± 3.1e-05		6.86e-05 ± 1.5e-05	
A14U U57C	7.65e-05 ± 1.4e-05		5.75e-05 ± 1.1e-05	6.38e-05 ± 1.2e-05			
A14U U57G	2.1e-05 ± 4e-06						< 1e-05
G13A U55C	0.000582 ± 0.00014	2910 ± 1300	0.000191 ± 3.5e-05	0.000492 ± 4.8e-05	3.73e-05 ± 1.6e-05	0.000123 ± 1.6e-05	
A14G A36G	4.89e-05 ± 6.4e-07	854 ± 82	3.69e-05 ± 1.2e-05	4.49e-05 ± 6.3e-06			
A15C A48U	5.55e-05 ± 7.9e-06	2840 ± 1100	2.83e-05 ± 1.2e-05	4.26e-05 ± 1.2e-05			< 1e-05
A14U U46G	0.0012 ± 0.00012	2150 ± 380	0.000548 ± 0.0001	0.00104 ± 0.00012	9.07e-05 ± 2.1e-05	0.000293 ± 4.6e-05	1.98e-05 ± 6.9e-06

Variant	kcat [1] [s⁻¹]	KM [2] [µM]	self-cleavage kobs at 2500 uM GlcN6P [3] [s⁻¹]	self-cleavage kobs at 10000 uM GlcN6P [4] [s⁻¹]	self-cleavage kobs at 160 uM GlcN6P [5] [s⁻¹]	self-cleavage kobs at 640 uM GlcN6P [6] [s⁻¹]	self-cleavage kobs at 40 uM GlcN6P [7] [s⁻¹]
G13U A15C U54C	0.000132 ± 1.2e-05		0.00013 ± 3.3e-05	0.000122 ± 1.9e-05			
G13C U45A	0.000315 ± 0.00011		9.3e-05 ± 2.3e-05	0.000213 ± 3.9e-05		6.93e-05 ± 3.2e-05	
G13C U45G	3.74e-05 ± 3.6e-06			3.22e-05 ± 1.2e-05			< 1e-05
A14C A39C	0.000549 ± 0.00015	4660 ± 2000	0.000254 ± 3.3e-05	0.000346 ± 4.9e-05		5.77e-05 ± 9.6e-06	
G13U A53G C68G	4.16e-05 ± 3.1e-06		4.16e-05 ± 1.5e-05				
A14U A39C	0.00121 ± 0.00019	2790 ± 700	0.000537 ± 8.2e-05	0.000981 ± 9.1e-05	7.69e-05 ± 1.2e-05	0.000203 ± 2.4e-05	2.83e-05 ± 7.2e-06
A14U A39G	0.0158 ± 0.0077		0.00644 ± 0.0013	0.0136 ± 0.0025	0.000604 ± 0.00015	0.00493 ± 0.0011	0.000381 ± 6.3e-05
A14G U46A	0.0109 ± 0.0043		0.0054 ± 0.001	0.00723 ± 0.0012	0.000271 ± 7.3e-05	0.00157 ± 0.00055	0.000166 ± 3.1e-05
A14U U30A	0.00136 ± 0.00037	2250 ± 960	0.000564 ± 9.8e-05	0.00134 ± 0.00021	8.35e-05 ± 1.7e-05	0.000337 ± 5.2e-05	3.62e-05 ± 1e-05
A14C G29U	0.000857 ± 0.00017	1650 ± 550	0.000556 ± 8.5e-05	0.000697 ± 0.0001	5.99e-05 ± 1.3e-05	0.000267 ± 3.9e-05	4.05e-05 ± 1.2e-05
G13U A52U	1.58e-05 ± 2.6e-06				< 1e-05		< 1e-05
A15C A42G	0.00745 ± 0.00078	1450 ± 220	0.00411 ± 0.001	0.00721 ± 0.0015	0.000843 ± 0.00038	0.00216 ± 0.00062	0.000206 ± 3.8e-05
A14G G43U	0.000159 ± 2.6e-05	2770 ± 980	6.85e-05 ± 8.5e-06	0.000131 ± 1.5e-05		3.9e-05 ± 8.4e-06	
G13U A14C	0.00021 ± 2.8e-05	8960 ± 1900	4.71e-05 ± 9.7e-06	0.00011 ± 2e-05			
G13U C68A	1.31e-05 ± 2e-06						
G13C C67U	4.46e-05 ± 7.3e-06		4.34e-05 ± 1.3e-05	4.04e-05 ± 7.8e-06			
G13U U54G	0.00069 ± 0.00021		0.000363 ± 6.4e-05	0.000964 ± 0.00015	9.27e-05 ± 1.6e-05	0.000263 ± 6e-05	3.24e-05 ± 1.1e-05
